Data: PMC5664961 (2017)

Target: human Cul3 N-terminal domain (NTD, residues M1-L388) with the engineered mutations I342R and L346D (human, UniProt Q13618 1-388, I342R | L346D)
Experiment: ITC

human Cul3 N-terminal domain (NTD, residues M1-L388) with the engineered mutations I342R and L346D, sequence (Q13618 1-388 I342R/L346D): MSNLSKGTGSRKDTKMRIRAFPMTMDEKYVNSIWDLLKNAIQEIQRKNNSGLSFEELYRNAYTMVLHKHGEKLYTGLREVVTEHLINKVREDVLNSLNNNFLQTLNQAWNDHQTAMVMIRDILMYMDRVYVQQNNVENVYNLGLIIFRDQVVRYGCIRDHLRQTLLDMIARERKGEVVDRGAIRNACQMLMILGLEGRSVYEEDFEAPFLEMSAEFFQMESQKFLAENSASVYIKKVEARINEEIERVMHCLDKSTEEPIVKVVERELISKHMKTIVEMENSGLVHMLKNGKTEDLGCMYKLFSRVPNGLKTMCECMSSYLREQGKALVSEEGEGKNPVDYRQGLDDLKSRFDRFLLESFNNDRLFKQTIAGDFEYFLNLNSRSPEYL

B1: KCTD17 BTB + CTD multi-domain construct (residues G20-Q220), tag cleaved (domain or fragment)
chain: SMGAGGRAAGGWGKWVRLNVGGTVFLTTRQTLCREQKSFLSRLCQGEELQSDRDETGAYLIDRDPTYFGPILNFLRHGKLVLDKDMAEEGVLEEAEFYNIGPLIRIIKDRMEEKDYTVTQVPPKHVYRVLQCQEEELTQMVSTMSDGWRFEQLVNIGSSYNYGSEDQAEFLCVVSKELHSTPNGLSSESSRKTKSTEEQLEEQ
Question: With B1 as the binder, how does the Kd read?
Answer: Its Kd is 0.012 µM.
